Experimental data from patent US6410296.

B1: LM7, subclone of APNG1 expressing amino acids 1-280 (protein)
chain: MADPVYVGGFLVRYDEPPGEAELFLPSGVVDRWLRDCRGPLPLNVNHDESATVGYVAGLQNVRAGLFCLGRVTSPKFLDIVQKASEKSELVSRGPPSESSLRPDGVLEFLSGSYSGLSLSSRRDINAADGAAGDAETACFKHVALCSVGRRRGTLAVYGRQPDWVMERFPDLTEADREALRNQLSGSGEVAAKESAESSAAAAVDPFQSDSYGLLGNSVDALYIQERLPKLRYDKRLVGVTARESYVKASVSPAEQETCDIKVEKERPKEPEQSHVPTES
B2: LM8, subclone of APNG1 expressing amino acids 1-249 (protein)
chain: MADPVYVGGFLVRYDEPPGEAELFLPSGVVDRWLRDCRGPLPLNVNHDESATVGYVAGLQNVRAGLFCLGRVTSPKFLDIVQKASEKSELVSRGPPSESSLRPDGVLEFLSGSYSGLSLSSRRDINAADGAAGDAETACFKHVALCSVGRRRGTLAVYGRQPDWVMERFPDLTEADREALRNQLSGSGEVAAKESAESSAAAAVDPFQSDSYGLLGNSVDALYIQERLPKLRYDKRLVGVTARESYVKA

Target: CMV Colburn assembly protein precursor (product of APNG.5)

Protein	proteolytic activity
B1	Both are proteolytically active using assembly protein precursor as a substrate
B2	Both are proteolytically active using assembly protein precursor as a substrate
